# Measured values as given in the supplement of paper PMC10126150.
# ± gives the standard deviation of the averaged measurements.
# Test system: ATP
# Assay: switch fluorescence ratio, 500 uM ATP over buffer (Cy3 cluster intensity, sum of 5 cycles each) (fold (ratio)); higher = stronger signal-on switching upon ATP binding; sequences stand for … in TCGTCGGCAGCGTCAGATGTGTATAAGAGACAGTTTTTTTTTTTTTTTTTTTTTTTTT…TC
# Conditions: aptamer strand: ATP DNA aptamer (quencher-CACCTGGGGGAGTATTGCGGAGGAAGG + anchor), 100 nM annealed; ATP concentration: 500 uM
# Procedure, shortened: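 Cy3-labelled switching-strand clusters on a modified Illumina MiSeq flow-cell were annealed to 100 nM quencher-labelled ATP aptamer, imaged in selection buffer, then imaged after 15 min with 500 uM ATP at 22 °C. Five buffer/ATP cycles ran, with NaOH stripping and re-annealing between them. The fluorescence ratio is summed target-cycle over summed buffer-cycle Cy3 intensity per cluster, averaged per switch-domain sequence. Clusters outside 100-1000 RFU were excluded.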
# 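Note: ATP exposure 15 min at 22 °C before imaging.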
row,Sequence,switch fluorescence ratio
1,CGTCAGGTGT,3.713 ± 0.012
2,CGTCATATTG,0.997 ± 0.027
3,CGTCATGGCT,0.957 ± 0.041
4,CGTCCAGCTT,1.51 ± 0.18
5,CGTCCGGCGC,1.346 ± 0.0029
6,CGTCCGGGGA,1.56 ± 0.075
7,CGTCCGGGGT,1.48 ± 0.62
8,CGTCCGGTCG,1.02 ± 0.064
9,CGTCCTGAGG,1.04 ± 0.019
10,CGTCCTTGTT,0.991 ± 0.029
11,CGTCCTTTTT,1.05 ± 0.039
12,CGTCGCGGGC,1.0404 ± 0.00051
13,CGTCGGGGAT,1 ± 0.037
14,CGTCGGGGCG,1.02 ± 0.036
15,CGTCTAAAC,1.13 ± 0.021
16,CGTCTAACGC,1.02 ± 0.029
17,CGTCTAAGCG,1 ± 0.086
18,CGTCTAGAGA,1.02 ± 0.073
19,CGTCTGGCTG,1 ± 0.057
20,CGTCTGGGGA,0.996 ± 0.048
21,CGTCTGTCTC,1.045 ± 0.005
22,CGTCTTATTA,0.9826 ± 0.0028
23,CGTCTTGGTG,0.999 ± 0.03
24,CGTGAACTCT,0.999 ± 0.016
25,CGTGAAGGGA,1.01 ± 0.026

row,Sequence,switch fluorescence ratio
1,CGTGAATAGT,1.03 ± 0.041
2,CGTGAATCTG,0.9669 ± 0.006
3,CGTGACGAGC,1.12 ± 0.062
4,CGTGATCCCC,1.17 ± 0.057
5,CGTGATGGAG,1.011 ± 0.009
6,CGTGATGGTA,0.969 ± 0.0098
7,CGTGATGGTT,0.983 ± 0.014
8,CGTGATTCAC,1.007 ± 0.0075
9,CGTGATTTA,0.961 ± 0.017
10,CGTGCAGGGT,1.03 ± 0.052
11,CGTGCAGTTC,1.15 ± 0.036
12,CGTGCATATC,2.51 ± 0.17
13,CGTGCCGATC,1.01 ± 0.013
14,CGTGCGGGGT,0.991 ± 0.028
15,CGTGCGGTAT,0.987 ± 0.039
16,CGTGCGGTGG,1.01 ± 0.043
17,CGTGCTATTC,1.235 ± 0.012
18,CGTGCTGTTA,0.98019 ± 0.0002
19,CGTGGCATTT,1.03 ± 0.07
20,CGTGGCGCCG,0.957 ± 0.054
21,CGTGGCGGGA,0.923 ± 0.09
22,CGTGGGACAG,0.976 ± 0.011
23,CGTGGGACTC,1.1401 ± 0.00046
24,CGTGGGCGCC,0.972 ± 0.026
25,CGTGGGGATG,1.001 ± 0.0031

row,Sequence,switch fluorescence ratio
1,CGTGGGGTTC,0.983 ± 0.021
2,CGTGGGTTGT,0.9956 ± 0.0018
3,CGTGGTCAAC,0.968 ± 0.047
4,CGTGGTGGAG,1 ± 0.045
5,CGTGGTGGCT,0.989 ± 0.12
6,CGTGGTTTGT,0.9874 ± 0.0051
7,CGTGTAAGGC,0.993 ± 0.025
8,CGTGTAAGTA,1.011 ± 0.0044
9,CGTGTAGGGA,1.06 ± 0.029
10,CGTGTCGTGC,0.971 ± 0.062
11,CGTGTCTTAA,0.974 ± 0.021
12,CGTGTGGCCA,1 ± 0.016
13,CGTGTGTATG,0.997 ± 0.0085
14,CGTGTTTTAC,1.018 ± 0.007
15,CGTTAAGCTT,1.03 ± 0.014
16,CGTTACGTAG,1.05 ± 0.018
17,CGTTACTAAC,1.12 ± 0.02
18,CGTTAGGGGG,1.02 ± 0.041
19,CGTTAGGTAT,0.969 ± 0.033
20,CGTTAGTCGT,0.981 ± 0.039
21,CGTTATACGG,1.043 ± 0.0037
22,CGTTATATTT,1.07 ± 0.14
23,CGTTATGTTC,0.9772 ± 0.0031
24,CGTTATTCGG,0.965 ± 0.032
25,CGTTATTTCT,1.01 ± 0.052

row,Sequence,switch fluorescence ratio
1,CGTTCAAGTA,0.973 ± 0.056
2,CGTTCAGGGG,1.16 ± 0.024
3,CGTTCAGTGG,1.031 ± 0.0083
4,CGTTCATGCG,0.99 ± 0.032
5,CGTTCATTTG,0.993 ± 0.028
6,CGTTCCAGCC,1.04 ± 0.041
7,CGTTCCATTG,1 ± 0.012
8,CGTTCCGGGT,1.02 ± 0.036
9,CGTTCCTCGG,1.77 ± 0.057
10,CGTTCGATGC,1.21 ± 0.042
11,CGTTCGCTTA,1.96 ± 0.037
12,CGTTCGGCTG,1.04 ± 0.039
13,CGTTCGGGGG,1.01 ± 0.083
14,CGTTCGGGGT,0.981 ± 0.012
15,CGTTCTATCT,1 ± 0.079
16,CGTTCTCTGT,0.987 ± 0.029
17,CGTTCTGAGT,0.955 ± 0.016
18,CGTTCTTGTT,0.976 ± 0.032
19,CGTTGAATAT,1.01 ± 0.016
20,CGTTGACCTT,1.07 ± 0.029
21,CGTTGAGGTG,1.02 ± 0.02
22,CGTTGCAAAG,1.03 ± 0.022
23,CGTTGCGGGA,1.01 ± 0.045
24,CGTTGCTCGG,1 ± 0.0083
25,CGTTGCTTAG,0.988 ± 0.024

row,Sequence,switch fluorescence ratio
1,CGTTGGACGG,1.03 ± 0.026
2,CGTTGGGAGC,1 ± 0.019
3,CGTTGGGAGT,0.988 ± 0.037
4,CGTTGGGCAG,0.953 ± 0.099
5,CGTTGGGGG,0.963 ± 0.029
6,CGTTGGTGAG,0.9373 ± 0.0065
7,CGTTGTTGGA,1 ± 0.025
8,CGTTTAACAT,1.01 ± 0.014
9,CGTTTAAGCG,1.01 ± 0.038
10,CGTTTAAGGG,0.9819 ± 0.0074
11,CGTTTAATCA,0.982 ± 0.018
12,CGTTTACAAG,0.985 ± 0.033
13,CGTTTACCTT,1.0086 ± 0.001
14,CGTTTAGATA,1 ± 0.042
15,CGTTTAGTTG,1.002 ± 0.009
16,CGTTTATTTT,1.01 ± 0.03
17,CGTTTGACTT,0.9947 ± 0.0066
18,CGTTTGAGGA,1.01 ± 0.03
19,CGTTTGAGTT,0.984 ± 0.026
20,CGTTTGCAGT,1.02 ± 0.017
21,CGTTTGCGAT,0.989 ± 0.05
22,CGTTTGGCGT,1.12 ± 0.2
23,CGTTTGGGGA,0.99 ± 0.015
24,CGTTTGGGTA,0.999 ± 0.041
25,CGTTTGTTTG,0.988 ± 0.021

row,Sequence,switch fluorescence ratio
1,CGTTTTCGGG,1.02 ± 0.016
2,CGTTTTGGGA,0.98 ± 0.013
3,CGTTTTGTGC,1.03 ± 0.042
4,CGTTTTTAAT,1.01 ± 0.021
5,CGTTTTTGAA,0.99 ± 0.025
6,CGTTTTTGCT,0.961 ± 0.05
7,CGTTTTTTAG,0.99 ± 0.022
8,CGTTTTTTAT,1.02 ± 0.031
9,CTAAAACAGG,1.02 ± 0.03
10,CTAAAACTTG,1.14 ± 0.13
11,CTAAAATTGA,0.985 ± 0.038
12,CTAAACCGGT,0.989 ± 0.015
13,CTAAAGATCG,1.03 ± 0.049
14,CTAAATATGA,0.98 ± 0.035
15,CTAACATGTG,0.998 ± 0.03
16,CTAACTCGC,1.04 ± 0.011
17,CTAACTGAG,1.03 ± 0.017
18,CTAAGCCAAT,1.21 ± 0.023
19,CTAAGCCGTT,0.971 ± 0.011
20,CTAAGGCATG,1.05 ± 0.0013
21,CTAAGGCGTT,0.999 ± 0.013
22,CTAAGGGATT,1.01 ± 0.058
23,CTAATACTTG,0.9791 ± 0.0024
24,CTAATAGGAG,1.004 ± 0.0025
25,CTAATATGGG,1.04 ± 0.021

row,Sequence,switch fluorescence ratio
1,CTAATCAAAT,0.973 ± 0.019
2,CTAATCATCT,1.01 ± 0.039
3,CTAATGTGCG,1.15 ± 0.28
4,CTAATTGTGT,0.9933 ± 0.0034
5,CTACCAGGGA,1.149 ± 0.0019
6,CTACGAGCTG,1.06 ± 0.021
7,CTACGGGGCG,1.01 ± 0.061
8,CTAGAAGTAT,1.024 ± 0.0033
9,CTAGAATGAT,1.014 ± 0.0072
10,CTAGAGGGGG,0.9711 ± 0.0094
11,CTAGATGCTT,1.012 ± 0.0096
12,CTAGATGGGT,1.01 ± 0.046
13,CTAGCTTACT,1.36 ± 0.065
14,CTAGGAGCTT,1 ± 0.044
15,CTAGGGGATG,1.03 ± 0.062
16,CTAGGGTGGA,1.05 ± 0.023
17,CTAGGGTTGT,1.02 ± 0.045
18,CTAGGTAGGG,0.997 ± 0.035
19,CTAGTACGGG,1.04 ± 0.031
20,CTAGTCACGT,1.003 ± 0.0031
21,CTAGTCGCGC,1 ± 0.026
22,CTAGTTGGTA,0.994 ± 0.027
23,CTATAACAAT,1.02 ± 0.021
24,CTATACGGTA,1.128 ± 0.0097
25,CTATCTTCGG,0.974 ± 0.038

row,Sequence,switch fluorescence ratio
1,CTATGCTAGT,1.01 ± 0.016
2,CTATGGAAGG,0.98 ± 0.013
3,CTATGGGATG,0.992 ± 0.039
4,CTATGGGGTG,1.04 ± 0.04
5,CTATGTAAAT,1.01 ± 0.031
6,CTATGTGGGT,1.02 ± 0.048
7,CTATGTGTCA,0.977 ± 0.05
8,CTATGTGTCT,0.97 ± 0.043
9,CTATGTTATT,1.01 ± 0.038
10,CTATGTTCGC,0.954 ± 0.023
11,CTATTATAGT,0.9844 ± 0.0034
12,CTATTATTCT,0.983 ± 0.018
13,CTATTCCGAG,1.16 ± 0.066
14,CTATTTACGA,1.05 ± 0.015
15,CTATTTAGGG,0.996 ± 0.024
16,CTATTTCTAC,1.03 ± 0.046
17,CTATTTTAAG,1.02 ± 0.051
18,CTCAAAAGA,1.11 ± 0.077
19,CTCAAAAGTA,1.09 ± 0.11
20,CTCAACGATT,1.03 ± 0.048
21,CTCAAGACGG,1.06 ± 0.012
22,CTCAAGGTGA,1.45 ± 0.11
23,CTCAATAGCA,1.036 ± 0.0037
24,CTCAATCGAA,1.03 ± 0.026
25,CTCAATCGGG,1.04 ± 0.021
